According to patent publication US6458934 (LG CHEMICAL, dated 2002):

Tests used:
[1] = target: T1, 4-1BB antigen (human, UniProt Q07011 24-186, limits assumed); test: BIAcore SPR; ratio of Kd against mouse monoclonal antibody 4B4-1-1
T1 construct: also called human 4-1BB; h4-1BB
Experimental: (§1) The binding affinity of the mouse monoclonal antibody 4B4-1-1 and humanized antibody were determined and compared using the BIAcore™ assay (Pharmacia). Rabbit anti-mouse IgG (Sigma) and goat anti-human IgG (Fc-specific) were each diluted in 10 mM acetic acid buffer, and coupled to a Dextran CM-5 sensor chip (Pharmacia). 1 M ethanolamine was added to stop the reaction. Mouse monoclonal antibody 4B4-1-1 and humanized antibody Hz4B4-1 were each diluted to a concentration of 50 μg/ml in HEPES buffer (HBS). The coupled antibodies were bound at 100 resonance units (R.U.), and 25 μg/ml of 4-1BB antigen was applied at a flow rate of 10 μl/min. and bound for 5 minutes. HBS buffer (Pharmacia) was applied for 5 minutes at the same flow rate so that dissociation would occur. The association rate and dissociation rates and corresponding rate constants were determined by using BIA evaluation software. The results are shown in Table 2 as $kon$ and $koff$ values; K_d is also shown.
(§2) The antigen binding affinity of the purified Hz4B4-2 humanized antibody was measured as in Example 5 using the BIAcore™ assay (Pharmacia).

[2] = target: T1, 4-1BB antigen; test: summary of the BIAcore results; ratio against mouse monoclonal antibody 4B4-1-1
[3] = target: T1, 4-1BB antigen; test: summary of the BIAcore results; ratio against Hz4B4-1
[4] = target: T1, 4-1BB antigen; test: BIAcore SPR; antibody captured by anti-mouse IgG on a CM-5 chip, 4-1BB antigen 25 µg/ml in flow
Experimental: as §1

[5] = target: T1, 4-1BB antigen; test: BIAcore SPR as in Example 5; antibody captured, 4-1BB antigen in flow
Experimental: as §1, §2

[6] = target: T1, 4-1BB antigen; test: BIAcore SPR; antibody captured by anti-human IgG (Fc-specific) on a CM-5 chip, 4-1BB antigen 25 µg/ml in flow
Experimental: as §1

Row | fold greater antigen binding affinity than mouse monoclonal antibody 4B4-1-1 [1] [fold] | fold higher antigen binding affinity than the original mouse monoclonal antibody [2] [fold] | fold greater antigen binding affinity than Hz4B4-1 [3] [fold] | Kd [4] [nM] | koff [4] [s⁻¹] | kon [4] [M⁻¹ s⁻¹] | Kd [5] [nM] | kon [5] [M⁻¹ s⁻¹] | fold greater antigen binding affinity (Kd) than mouse antibody 4B4-1-1 [1] [fold] | fold greater antigen binding affinity (Kd) than mouse monoclonal antibody 4B4-1-1 [1] [fold] | Kd [6] [nM] | koff [6] [s⁻¹] | kon [6] [M⁻¹ s⁻¹] | koff [5] [s⁻¹] | Binder
1 | 7.3 | 7 | 5 |  |  |  |  |  |  |  |  |  |  |  | humanized antibody Hz4B4-2 (antibody, V domains shown, Whole antibody made in CHO-K1 cells (SB500 clone); The variable regions were put into the Hz4B4-1 expression vectors, so it has the same human kappa and human heavy chain constant regions; also called Hz4B4k-2 (light chain); Hz4B4h-2 (heavy chain)) VH: QVQLVQSGAEVKKPGASVKVSCKASGYTFSSYWMHWVRQAPGQRLEWMGEINPGNGHTNYSQKFQGRVTITVDKSASTAYMELSSLRSEDTAVYYCARSFTTARAFAYWGQGTLVTVSS VL: DIVMTQSPPTLSLSPGERVTLSCRASQSISDYLHWYQQKPGQSPRLLIKYASQSISGIPARFSGSGSGTDFTLTISSLEPEDFAVYYCQDGHSFPPTFGGGTKVEIK
2 |  |  |  | 0.133 | 1.54e-06 | 11600 | 0.133 | 11600 |  |  |  |  |  |  | mouse monoclonal antibody 4B4-1-1 (antibody, V domains shown, Whole mouse monoclonal antibody from a hybridoma; also called 4B4 MAb; 4B4 monoclonal antibody) VH: QVQLQQPGAELVKPGASVKLSCKASGYTFSSYWMHWVKQRPGQVLEWIGEINPGNGHTNYNEKFKSKATLTVDKSSSTAYMQLSSLTSEDSAVYYCARSFTTARAFAYWGQGTLVTVSA VL: DIVMTQSQATQSVTPGDRVSLSCRASQTISDYLHWYQQKSHESPRLLIKYASQSISGIPSRFSGSGSGSDFTLSINSVEPEDVGVYYCQDGHSFPPTFGGGTKLEIK
3 |  |  |  |  |  |  | 0.0872 | 50000 | ~1.5 | 1.5 | 0.0872 | 4.36e-06 | 50000 | 4.36e-06 | humanized antibody Hz4B4-1 (antibody, V domains shown, also called Hz4B4k-1 (light chain variable region); Hz4B4h-1 (heavy chain variable region)) VH: QVQLVQSGAEVVKPGASVKLSCKASGYTFSSYWMHWVKQAPGQVLEWIGEINPGNGHTNYNEKFKSKATLTVDKSASTAYMELSSLRSEDTAVYYCARSFTTARAFAYWGQGTLVTVSS VL: DIVMTQSPATQSVSPGERVTLSCRASQTISDYLHWYQQKPGQSPRLLIKYASQSISGIPSRFSGSGSGSDFTLTISSVEPEDFGVYYCQDGHSFPPTFGGGTKLEIK
